The values that follow come from US20160185859A1 (Pfizer, published 2016).

Like-named read-outs stand apart in the source and are kept apart here.

Experiment [1] deals with human 5T4 antigen expressed on cells (PC14PE6 cells; MDAMB435/5T4 cells) (human) (UniProt Q13641). Description: FACS of PC14PE6 cells; control.
The target of experiment [2] is T1, human 5T4 antigen (human, UniProt Q13641 32-355, limits assumed).
T1 sequence: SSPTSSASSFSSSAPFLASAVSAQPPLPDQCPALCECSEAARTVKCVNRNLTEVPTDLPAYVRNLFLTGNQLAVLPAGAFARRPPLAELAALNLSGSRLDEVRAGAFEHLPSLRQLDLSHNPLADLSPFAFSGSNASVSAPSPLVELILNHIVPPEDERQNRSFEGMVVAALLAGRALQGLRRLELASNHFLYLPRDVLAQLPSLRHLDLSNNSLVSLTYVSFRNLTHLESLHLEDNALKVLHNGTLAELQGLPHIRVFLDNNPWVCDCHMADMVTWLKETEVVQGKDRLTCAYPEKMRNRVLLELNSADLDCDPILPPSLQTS
Kind of experiment: BIACORE; human 5T4 chip saturated with first antibody humanized H8 (competitor); 75 s after injection of second antibody. Background: SPR reads the build-up and loss of mass on a sensor chip optically.

Experiment [3] concerns the target T2, human 5T4 ectodomain Fc (human, UniProt Q13641 32-355).
T2 construct: also called human 5T4 ectodomain Fc fusion protein; Human 5T4 Ectodomain/Fc Fusion; not shown: Fc constant regions from human IgG1
T2 sequence: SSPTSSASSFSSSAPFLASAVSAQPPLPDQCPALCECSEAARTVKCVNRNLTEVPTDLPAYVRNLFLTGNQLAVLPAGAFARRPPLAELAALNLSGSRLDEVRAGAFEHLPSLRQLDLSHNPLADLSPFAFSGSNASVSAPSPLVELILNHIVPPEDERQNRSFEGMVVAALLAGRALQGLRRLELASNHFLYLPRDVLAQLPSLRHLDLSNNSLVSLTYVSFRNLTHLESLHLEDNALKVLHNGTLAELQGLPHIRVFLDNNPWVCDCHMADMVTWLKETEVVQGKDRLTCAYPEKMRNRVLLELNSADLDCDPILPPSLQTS
Kind of experiment: ELISA; 5T4 ectodomain/Fc fusion protein from transiently transfected COS-1 cells; given as ED50. On the procedure: (§1) To assay binding of anti-5T4 antibodies, 5T4 ectodomain/Fc fusion proteins were transiently transfected into COS-1 cells, and ELISA assays were performed. Non-relevant human IgG4 and IgG1 antibodies were used as controls.
A general note: ELISA stands for enzyme-linked immunosorbent assay.

Experiment [4] has as its target T3, cynomologous monkey 5T4 ectodomain Fc (cynomologous monkey; human, UniProt Q4R8Y9 32-355).
T3 construct: not shown: Fc constant regions from human IgG1
T3 chain: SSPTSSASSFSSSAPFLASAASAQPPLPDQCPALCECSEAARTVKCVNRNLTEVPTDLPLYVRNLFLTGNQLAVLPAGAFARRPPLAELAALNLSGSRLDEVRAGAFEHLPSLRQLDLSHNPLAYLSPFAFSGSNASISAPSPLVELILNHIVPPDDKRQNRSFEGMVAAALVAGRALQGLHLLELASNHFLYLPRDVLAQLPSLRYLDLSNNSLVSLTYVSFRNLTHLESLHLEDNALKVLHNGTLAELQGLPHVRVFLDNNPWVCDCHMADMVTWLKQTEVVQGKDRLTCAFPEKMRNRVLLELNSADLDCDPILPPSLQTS
The description is as above. As to the method:
as §1

The target of experiment [5] is chimpanzee 5T4 ectodomain Fc (chimpanzee; human, UniProt P01857 99-330 = IgG part). Described as above. On the procedure:
as §1

In experiment [6] the target is T4, black-tailed marmoset 5T4 ectodomain Fc (black-tailed marmoset; human, UniProt Q13641 32-355).
T4 construct: not shown: Fc constant regions from human IgG1
T4 chain: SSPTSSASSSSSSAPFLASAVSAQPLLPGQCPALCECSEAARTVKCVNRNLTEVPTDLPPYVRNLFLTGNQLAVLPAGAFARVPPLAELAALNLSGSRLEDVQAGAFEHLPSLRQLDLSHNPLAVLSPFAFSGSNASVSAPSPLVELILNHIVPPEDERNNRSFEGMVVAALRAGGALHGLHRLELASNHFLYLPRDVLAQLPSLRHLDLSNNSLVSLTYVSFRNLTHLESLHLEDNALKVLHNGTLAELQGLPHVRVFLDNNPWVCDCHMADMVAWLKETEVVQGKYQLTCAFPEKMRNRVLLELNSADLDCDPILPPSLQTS
The description is as above. On the procedure: as §1

Experiment [7] deals with T1, human 5T4 antigen. Description: BIACORE; human 5T4 chip saturated with first antibody humanized H8 (competitor); 150 s after injection of second antibody.
In experiment [8] the target is T1, human 5T4 antigen. Description: BIACORE; human 5T4 chip saturated with first antibody humanized H8 (competitor); 37.5 s after injection of second antibody.
Experiment [9] has as its target T1, human 5T4 antigen. Description: BIACORE (SPR); human 5T4 antigen immobilized on CM5 chip. As to the method:
(§2) To assess the binding specificity and affinity of the A1, A2, and A3 antibodies, BIACORE® analysis was performed using human 5T4 antigen immobilized on a CM5 chip. BIACORE® technology utilizes changes in the refractive index at the surface layer upon binding of the antibody to the 5T4 antigen immobilized on the layer. Binding is detected by surface plasmon resonance (SPR) of laser light refracting from the surface. Analysis of the signal kinetics on rate and off rate allows discrimination between non-specific and specific interactions. The H8 anti-5T4 antibody was used as a control. H8 is a hybridoma-generated monoclonal mouse IgG1 antibody described in PCT International Publication No. WO 98/55607 and in Forsberg et al. (1997) J. Biol. Chem. 272(19):[…].
To assess the binding specificity and affinity of the chimeric and humanized H8, A1, A2, and A3 antibodies, BIACORE® analysis was performed using human 5T4 antigen immobilized on a CM5 chip. See Example 2.

Experiment [10] concerns the target T1, human 5T4 antigen. Description: BIACORE; human 5T4 chip saturated with first antibody humanized H8 (competitor); 19 s after injection of second antibody.
In experiment [11] the target is T1, human 5T4 antigen. Kind of experiment: BIACORE; human 5T4 chip saturated with first antibody humanized H8 (competitor); 600 s after injection of second antibody.
For experiment [12], the target named is T1, human 5T4 antigen. Kind of experiment: BIACORE; human 5T4 chip saturated with first antibody humanized H8 (competitor); 300 s after injection of second antibody.
Experiment [13] deals with T1, human 5T4 antigen. Description: ELISA; inhibition of biotinylated chimeric A1 antibody binding to human 5T4.
Experiment [14] deals with T1, human 5T4 antigen. Description: BIACORE; human 5T4 chip saturated with first antibody H8 (competitor). On the procedure: Epitope mapping of the H8, A1, A2, and A3 antibodies was also performed using BIACORE® using a CM5 chip with bound human 5T4 antigen. The chip was saturated with H8, A1, A2, or A3 antibody, and a first response was measured. The chip was then saturated with a second antibody from among the H8, A1, A2, and A3 antibodies, and a second response was measured. For multiple experiments, the chip was regenerated by dissociation of the bound antibodies in 10 mM glycine, pH 1.5, followed by a buffer wash. The percentages shown are the response units measured upon binding by a second antibody directly to the CM5 chip divided by the response units measured upon binding of the second antibody to a CM5 chip saturated with a first antibody.

Experiment [15] has as its target T5, human 5T4 antigen expressed on cells (PC14PE6 cells; MDAMB435/5T4 cells) (human, UniProt Q13641 32-420).
T5 construct: PC14PE6 are human non-small cell lung cancer cells; also called 5T4-expressing PC14PE6 cells
T5 sequence: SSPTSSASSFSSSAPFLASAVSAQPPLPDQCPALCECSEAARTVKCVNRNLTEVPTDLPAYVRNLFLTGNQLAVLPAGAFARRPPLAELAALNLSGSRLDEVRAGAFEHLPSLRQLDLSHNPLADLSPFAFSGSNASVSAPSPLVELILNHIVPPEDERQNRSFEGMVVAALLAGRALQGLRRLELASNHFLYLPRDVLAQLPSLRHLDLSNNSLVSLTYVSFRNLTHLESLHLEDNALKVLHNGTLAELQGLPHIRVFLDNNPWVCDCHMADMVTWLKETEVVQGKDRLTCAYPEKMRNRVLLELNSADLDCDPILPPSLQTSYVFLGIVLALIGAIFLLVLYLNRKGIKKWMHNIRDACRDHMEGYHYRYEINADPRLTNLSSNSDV
Kind of experiment: FACS of PC14PE6 cells.

Experiment [16] addresses T1, human 5T4 antigen. Kind of experiment: BIACORE (SPR); human 5T4 antigen immobilized on CM5 chip. As to the method:
as §2
This is another data set of the same source.

For experiment [17], the target named is T5, human 5T4 antigen expressed on cells …. Kind of experiment: cell-based or functional assay.

For orientation: EC50 means the concentration needed to bring the measured effect to its halfway point. For orientation: Kd means the equilibrium constant for the complex coming apart. The koff is the rate constant with which the complex falls apart. By kon is commonly meant the rate constant with which the complex forms. In general, IC50 refers to the concentration that inhibits the measured activity by half.

For Control (secondary Ab) (antibody), the Mean Cellular Flouresence in experiment [1] was found to be 4.

Regarding Control (murine IgG) (antibody), the Mean Cellular Flouresence in [1] turned out to be 4.

B1: chimeric A1 antibody (antibody, V domains shown)
VH: QIQLVQSGPELKKPGETVKISCKASGYTFTNFGMNWVKQGPGEGLKWMGWINTNTGEPRYAEEFKGRCAFSLETTASTAYLQINNLKNEDTATYFCARDWDGAYFFDYWGQGTTLTVSS
VL: SIVMTQTPKFLLVSAGDRVTITCKASQSVSNDVAWYQQKPGQSPKLLINFATNRYTGVPNRFTGSGYGTDFTFTISTVQAEDLALYFCQQDYSSPWTFGGGTKLEIK
modifications: Biotinylated when used as the labelled competitor in Table 13; the site is not stated.
notes: also called ChiA1; ChiA1 γ4
As to B1, the “percentage of second antibody bound following saturation with first antibody” value in experiment [2] was found to be 93.8%; in [7] it was 95.8%; in [8] it was 92.4%; in [10] it was 92.7%; in experiment [11] it was 98.7%; in experiment [12], 97.3%. The EC50 in experiment [3] came to 0.28 nM; in experiment [4], 0.18 nM; in [5] it was 0.27 nM; in experiment [6], 0.24 nM. This molecule also came in with a Ka in [9] of 2.3e+09 M⁻¹. This molecule returned an equilibrium dissociation constant (Kd) in experiment [9] of 0.44 nM. Also, in experiment [9], the koff was 6.7e-05 s⁻¹. The molecule also yielded an on-rate (kon) in experiment [9] of 150000 M⁻¹ s⁻¹. This molecule also yielded an IC50 in experiment [13] of 16 to 20 nM.

B2: murine anti-5T4 antibody A1 (antibody, V domains shown)
VH: QIQLVQSGPELKKPGETVKISCKASGYTFTNFGMNWVKQGPGEGLKWMGWINTNTGEPRYAEEFKGRCAFSLETTASTAYLQINNLKNEDTATYFCARDWDGAYFFDYWGQGTTLTVSS
VL: SIVMTQTPKFLLVSAGDRVTITCKASQSVSNDVAWYQQKPGQSPKLLINFATNRYTGVPNRFTGSGYGTDFTFTISTVQAEDLALYFCQQDYSSPWTFGGGTKLEIK
For B2, the “percentage response of second antibody following saturation with first antibody” value in experiment [14] is 109%. For the same molecule, the “Mean Cellular Flouresence” value in experiment [15] was found to be 18. Moreover, in experiment [16], the Ka is 1.6e+09 M⁻¹, binding was put at a Kd of 0.64 nM, the koff came to 0.00013 s⁻¹ and the on-rate constant (kon) was 200000 M⁻¹ s⁻¹.

B3: A2-AcBut-CalichDMH, A2 antibody conjugated to calicheamicin using 4-(4'-acetylphenoxy)butanoic acid (AcBut) (other)
VH: QVQLQQSRPELVKPGASVKMSCKASGYTFTDYVISWVKQRTGQGLEWIGEIYPGSNSIYYNEKFKGRATLTADKSSSTAYMQLSSLTSEDSAVYFCAMGGNYGFDYWGQGTTLTVSS
VL: QIVLTQSPAIMSASLGERVTLTCTASSSVNSNYLHWYQQKPGSSPKLWIYSTSNLASGVPARFSGSGSGTSYSLTISSMEAEDAATYYCHQYHRSPLTFGAGTKLELK
modifications: calicheamicin (CalichDMH) conjugated to the antibody through the AcBut linker; residues carrying it not stated
On to B3, for which, in experiment [17], the “Fold CalichDMH, MTS assay, MDAMB435/5T4 cells” value worked out at 0.13 fold.

B4: chimeric A2 antibody (antibody, human IgG4, V domains shown)
VH: QVQLQQSRPELVKPGASVKMSCKASGYTFTDYVISWVKQRTGQGLEWIGEIYPGSNSIYYNEKFKGRATLTADKSSSTAYMQLSSLTSEDSAVYFCAMGGNYGFDYWGQGTTLTVSS
VL: QIVLTQSPAIMSASLGERVTLTCTASSSVNSNYLHWYQQKPGSSPKLWIYSTSNLASGVPARFSGSGSGTSYSLTISSMEAEDAATYYCHQYHRSPLTFGAGTKLELK
notes: also called ChiA2; ChiA2 γ4
Regarding B4, the “percentage of second antibody bound following saturation with first antibody” value came to 86.9% in experiment [2]; 90.5% in experiment [7]; 84.7% in experiment [8]; 86.9% in [10]; 96.7% in experiment [11]; 93.7% in experiment [12]. The concentration for a half-maximal effect (EC50) in experiment [3] was 0.21 nM; in experiment [4], 0.18 nM; in experiment [5], 0.22 nM; in [6], 0.22 nM. The molecule further registered a Ka in experiment [9] of 5.7e+08 M⁻¹. In addition, binding in [9] was characterised by a dissociation constant (Kd) of 1.8 nM. The molecule further came in with a koff in experiment [9] of 0.00025 s⁻¹. Moreover, the kon in experiment [9] was 140000 M⁻¹ s⁻¹.
